Reference: patent US6500431B1, “Inhibitors of angiogenesis and tumor growth” (University of Southern California, priority 1998, dated 2002)
Entries after “also recorded” stand apart in the source; their conditions may differ.

How the values were obtained:
KS Y-1 cells = test: KS cell migration assay, fibronectin-coated transwell; format: cell-based; conditions: chemotaxis induced by VEGF or bFGF
Procedure: (§1) The assays were done in double chamber wells separated by […] membrane. Chemotaxis was induced by bFGF (25 ng/mL) in the lower chamber. Endothelial cells or KS cells (5×10^4/mL) were placed in the upper chamber in the presence and absence of test polypeptides. Taxol at 10 ng/mL was used as a known inhibitor of migration. Cell migration across the membrane was quantitated after an overnight incubation.
Angiogenesis is mediated by complex biochemical processes including degradation of the basement membrane under existing blood vessel endothelial cells, followed by proliferation and migration of endothelial cells, followed by formation of capillary loops, and recruitment of vascular smooth muscle cells to encase the newly formed vessels and provide stability. KS and endothelial cell migration in the presence of Saposin B was studied in transwell culture plates with 8 μm pore membranes (Costar, Cambridge, Mass.).
Briefly, wells were coated with fibronectin (25 μg/mL) overnight, and endothelial cells or KS cells were plated in the upper chamber with 100 μL of DMEM/0.4% FCS. 500 μL of DMEM/0.4% FCS was added to the lower chamber and incubated at 37° C. for one hour. The test polypeptides, at various concentrations, were added to the upper chamber, and chemotactic agents (VEGF or bFGF at 20 ng/mL) were added to the lower cell-culture chambers. The plates were incubated for 5 hr at 37° C. and the cells crossing the fibronectin-coated membrane were counted after wiping the cells off the membrane in the upper chamber with a cotton swab.
The cells that traversed the membrane were fixed with Diff-Quik stain according to the manufacturer's instruction (Dade Diagnostics Inc., Aguada, PR). The cells were counted under a microscope at 320× in four randomly selected fields. The experiments were done in duplicate and repeated at least three times.

endothelial cells = test: Endothelial cell migration assay, fibronectin-coated transwell; format: cell-based; conditions: chemotaxis induced by VEGF or bFGF
Procedure: as §1
Angiogenesis is mediated by complex biochemical processes including degradation of the basement membrane under existing blood vessel endothelial cells, followed by proliferation and migration of endothelial cells, followed by formation of capillary loops, and recruitment of vascular smooth muscle cells to encase the newly formed vessels and provide stability. […]
Briefly, wells were coated with fibronectin (25 μg/mL) overnight, and endothelial cells or KS cells were plated in the upper chamber with 100 μL of DMEM/0.4% FCS. […] The plates were incubated for 5 hr at 37° C. and the cells crossing the fibronectin-coated membrane were counted after wiping the cells off the membrane in the upper chamber with a cotton swab.
The cells that traversed the membrane were fixed with Diff-Quik stain according to the manufacturer's instruction (Dade Diagnostics Inc., Aguada, PR). The cells were counted under a microscope at 320× in four randomly selected fields. […]

[1] = test system: chicken allantoic membrane (CAM); test: Chicken allantoic membrane (CAM) angiogenesis assay; format: in vivo; conditions: induced by VEGF or bFGF; 48 hours
Procedure: In order to test anti-angiogenic activity, chicken allantoic membrane (CAM) assays were performed with recombinant Saposin B. Ten day old fertilized chicken eggs were prepared for assay by creating a window in the egg shell, and placing filter paper discs saturated with VEGF or bFGF as positive controls, test compounds, or carrier buffer (negative controls) on the allantoic membrane. The membranes were harvested after 48 hours and analyzed using an Olympus stereomicroscope. The number of branching blood vessels that infiltrated under the discs were counted and photographed. Eight CAMs were studied for test group, and the experiments were repeated at least twice.

B1: Saposin B: polypeptide fragment of Prosaposin (positions 190 to 269), SEQ ID NO:2; recombinantly expressed (protein)
chain: GDVCQDCIQMVTDIQTAVRTNSTFVQALVEHVKEECDRLGPGMADICKNYISQYSEIAIQMMMHMQPKEICALVGFCDEVK
- inhibition of KS cell migration (KS Y-1 cells): compete inhibition of cell migration
- inhibition of endothelial cell migration (endothelial cells): compete inhibition of cell migration; also recorded: inhibited endothelial cell migration
- angiogenesis (number of blood vessel branches) in CAMs [1]: effectively blocked angiogenesis; also recorded: inhibited by Saposin B in a dose-dependent fashion
